Source: patent US20230167164A1 (IMMUNOWAKE, published 2023)
Each block holds one binder with its values, some of them ahead of it.

How the values were obtained:
human PD-1 [1] = target: T1, human PD-1 (human, UniProt Q15116 25-167, limits assumed); experiment: method not named
T1 construct: nivolumab is called an anti-human PD-1 antibody; also called hPD-1

mouse PD-1 [2] = target: T2, mouse PD-1 (mouse, UniProt Q02242 25-167, limits assumed); experiment: method not named
T2 construct: also called mPD-1
T2 sequence (looked up): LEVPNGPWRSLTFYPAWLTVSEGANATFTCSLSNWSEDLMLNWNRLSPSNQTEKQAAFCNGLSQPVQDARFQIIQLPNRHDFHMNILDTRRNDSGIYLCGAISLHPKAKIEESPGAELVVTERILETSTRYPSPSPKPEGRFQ

mouse PD-1 [3] = target: T2, mouse PD-1; experiment: Kd column of Table 22; same value as PD-L2(mut2)-Fc in Table 21
human PD-1 [4] = target: T1, human PD-1; experiment: affinity in PD-L1-Fc format; N/A indicates non-detectable PD-1 binding
mouse PD-1 [5] = target: T2, mouse PD-1; experiment: as above
mouse PD-1 [6] = target: T2, mouse PD-1; experiment: Kd column of Table 22; same value as PD-L2(WT)-Fc in Table 21
mouse PD-1 [7] = target: T2, mouse PD-1; experiment: Kd column of Table 22; same value as PD-L1(mut2)-Fc in Table 20
[8] = target: human PD-1 overexpressed on HEK-Blue reporter cells (human, UniProt Q15116 25-288); experiment: cell-based or functional assay
human PD-1 overexpressed on HEK-Blue reporter cells, sequence (Q15116 25-288): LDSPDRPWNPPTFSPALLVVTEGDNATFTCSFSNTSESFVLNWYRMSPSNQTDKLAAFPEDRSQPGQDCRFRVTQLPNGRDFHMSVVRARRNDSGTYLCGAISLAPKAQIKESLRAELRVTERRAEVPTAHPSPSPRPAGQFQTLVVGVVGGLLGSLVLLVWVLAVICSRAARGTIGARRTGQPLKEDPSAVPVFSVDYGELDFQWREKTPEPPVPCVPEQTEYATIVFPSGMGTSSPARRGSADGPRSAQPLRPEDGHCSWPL

[9] = target: human IL-12 receptor complex (human, UniProt P42701 24-662; Q99665 24-862); experiment: cell-based or functional assay
human IL-12 receptor complex, sequence (Q99665 24-862, chain 2 of 2, other chains not shown): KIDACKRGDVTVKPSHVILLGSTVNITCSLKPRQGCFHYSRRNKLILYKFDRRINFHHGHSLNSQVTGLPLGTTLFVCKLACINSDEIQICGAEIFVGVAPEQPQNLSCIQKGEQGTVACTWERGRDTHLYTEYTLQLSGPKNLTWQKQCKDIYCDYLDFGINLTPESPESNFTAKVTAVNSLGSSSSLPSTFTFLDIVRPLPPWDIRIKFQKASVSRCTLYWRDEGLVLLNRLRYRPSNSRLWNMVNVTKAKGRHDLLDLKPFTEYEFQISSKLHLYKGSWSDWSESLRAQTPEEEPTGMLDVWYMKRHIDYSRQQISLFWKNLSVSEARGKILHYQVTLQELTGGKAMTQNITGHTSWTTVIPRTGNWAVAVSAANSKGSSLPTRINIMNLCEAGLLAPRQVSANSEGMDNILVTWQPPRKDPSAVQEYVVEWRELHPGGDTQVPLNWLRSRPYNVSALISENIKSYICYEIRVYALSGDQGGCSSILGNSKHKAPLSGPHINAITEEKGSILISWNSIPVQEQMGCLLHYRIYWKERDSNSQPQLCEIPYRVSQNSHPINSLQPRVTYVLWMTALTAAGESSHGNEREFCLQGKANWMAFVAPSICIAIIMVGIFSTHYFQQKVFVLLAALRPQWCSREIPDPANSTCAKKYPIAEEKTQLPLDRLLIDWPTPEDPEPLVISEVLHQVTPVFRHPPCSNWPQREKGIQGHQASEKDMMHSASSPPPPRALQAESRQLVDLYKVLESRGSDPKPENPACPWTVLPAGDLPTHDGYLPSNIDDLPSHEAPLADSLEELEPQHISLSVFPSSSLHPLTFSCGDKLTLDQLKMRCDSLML

T1 sequence (Q15116 25-167 limits assumed): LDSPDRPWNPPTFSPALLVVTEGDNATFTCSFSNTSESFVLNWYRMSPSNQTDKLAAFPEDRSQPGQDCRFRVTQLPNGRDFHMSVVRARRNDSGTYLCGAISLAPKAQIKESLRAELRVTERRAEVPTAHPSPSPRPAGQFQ

Kd (human PD-1 [1]): ~100 nM | Kd (mouse PD-1 [2]): ~100 nM | Kd (mouse PD-1 [3]): 230 nM
B1: IL-12(E59A/F60A)/PD-L2(mut2)-Fc (Fc fusion)
chain 1: LFTVTVPKELYIIEHGSNVTLECNFDTGSHVNLGAITAVLQKVENDTSPHRERATLLEEQLPLGKASFHIPQVQVRDEGQYQCIIIYGVAWDYKYLTLKVKASYRKINTHILKVPETDEVELTCQATGYPLAEVSWPNVSVPANTSHSRTPEGLYQVTSVLRLKPPPGRNFSCVFWNTHVRELTLASIDLQSQMEPRTHPTGGGGSGGGIWELKKDVYVVELDWYPDAPGEMVVLTCDTPEEDGITWTLDQSSEVLGSGKTLTIQVKAAGDAGQYTCHKGGEVLSHSLLLLHKKEDGIWSTDILKDQKEPKNKTFLRCEAKNYSGRFTCWWLTTISTDLTFSVKSSRGSSDPQGVTCGAATLSAERVRGDNKEYEYSVECQEDSACPAAEESLPIEVMVDAVHKLKYENYTSSFFIRDIIKPDPPKNLQLKPLKNSRQVEVSWEYPDTWSTPHSYFSLTFCVQVQGKSKREKKDRVFTDKTSATVICRKNASISVRAQDRYYSSSWSEWASVPCSGGGGSGGGSGGGGSRNLPVATPDPGMFPCLHHSQNLLRAVSNMLQKARQTLEFYPCTSEEIDHEDITKDKTSTVEACLPLELTKNESCLNSRETSFITNGSCLASRKTSFMMALCLSSIYEDLKMYQVEFKTMNAKLLMDPKRQIFLDQNMLAVIDELMQALNFNSETVPQKSSLEEPDFYKTKIKLCILLHAFRIRAVTIDRVMSYLNASGGGGSGGGDKTHTCPPCPAPEDEGGPSVFLFPPKPKDTLMISRTPEVTCVVVDVSHEDPEVKFNWYVDGVEVHNAKTKPREEQYNSTYRVVSVLTVLHQDWLNGKEYKCKVSNKALPAPIEKTISKAKGQPREPQVYVYPPSREEMTKNQVSLTCLVKGFYPSDIAVEWESNGQPENNYKTTPPVLDEDGSFALVSKLTVDKSRWQQGNVFSCSVMHEALHNHYTQKSLSLSPGK
chain 2: LFTVTVPKELYIIEHGSNVTLECNFDTGSHVNLGAITAVLQKVENDTSPHRERATLLEEQLPLGKASFHIPQVQVRDEGQYQCIIIYGVAWDYKYLTLKVKASYRKINTHILKVPETDEVELTCQATGYPLAEVSWPNVSVPANTSHSRTPEGLYQVTSVLRLKPPPGRNFSCVFWNTHVRELTLASIDLQSQMEPRTHPTGGGGSGGGDKTHTCPPCPAPEKKGGPSVFLFPPKPKDTLMISRTPEVTCVVVDVSHEDPEVKFNWYVDGVEVHNAKTKPREEQYNSTYRVVSVLTVLHQDWLNGKEYKCKVSNKALPAPIEKTISKAKGQPREPQVYVLPPSREEMTKNQVSLLCLVKGFYPSDIAVEWESNGQPENRYMTWPPVLDSDGSFFLYSKLTVDKSRWQQGNVFSCSVMHEALHNHYTQKSLSLSPGK
notes: also called IL-12(E59A/F60A)/PD-L2(S58V)-Fc

binding result (human PD-1 [4]): no binding | binding result (mouse PD-1 [5]): no binding
B2: PD-L1(mut1)-Fc (Fc fusion)
chain 1: FTVTVPKDLYVVEYGSNMTIECKFPVEKQLDLAALIVYWMMEDKNIIQFVHGEEDLKVQHSSYRQRARLLKDQLSLGNAALQITDVKLQDAGVYTCLIAYKGADYKRITVKVNAPYNKINQRILVVDPVTSEHELTCQAEGYPKAEVIWTSSDHQVLSGKTTTTNSKREEKLFNVTSTLRINTTTNEIFYCTFRRLDPEENHTAELVIPELPLAHPPNERDKTHTCPPCPAPEDEGGPSVFLFPPKPKDTLMISRTPEVTCVVVDVSHEDPEVKFNWYVDGVEVHNAKTKPREEQYNSTYRVVSVLTVLHQDWLNGKEYKCKVSNKALPAPIEKTISKAKGQPREPQVYVYPPSREEMTKNQVSLTCLVKGFYPSDIAVEWESNGQPENNYKTTPPVLDEDGSFALVSKLTVDKSRWQQGNVFSCSVMHEALHNHYTQKSLSLSPGK
chain 2: FTVTVPKDLYVVEYGSNMTIECKFPVEKQLDLAALIVYWMMEDKNIIQFVHGEEDLKVQHSSYRQRARLLKDQLSLGNAALQITDVKLQDAGVYTCLIAYKGADYKRITVKVNAPYNKINQRILVVDPVTSEHELTCQAEGYPKAEVIWTSSDHQVLSGKTTTTNSKREEKLFNVTSTLRINTTTNEIFYCTFRRLDPEENHTAELVIPELPLAHPPNERDKTHTCPPCPAPEKKGGPSVFLFPPKPKDTLMISRTPEVTCVVVDVSHEDPEVKFNWYVDGVEVHNAKTKPREEQYNSTYRVVSVLTVLHQDWLNGKEYKCKVSNKALPAPIEKTISKAKGQPREPQVYVLPPSREEMTKNQVSLLCLVKGFYPSDIAVEWESNGQPENRYMTWPPVLDSDGSFFLYSKLTVDKSRWQQGNVFSCSVMHEALHNHYTQKSLSLSPGK
notes: also called E58M/R113T/M115L/S117A/G119K

Kd (mouse PD-1 [6]): 980 nM
B3: IL-12(E59A/F60A)/PD-L2(WT)-Fc (Fc fusion)
chain 1: LFTVTVPKELYIIEHGSNVTLECNFDTGSHVNLGAITASLQKVENDTSPHRERATLLEEQLPLGKASFHIPQVQVRDEGQYQCIIIYGVAWDYKYLTLKVKASYRKINTHILKVPETDEVELTCQATGYPLAEVSWPNVSVPANTSHSRTPEGLYQVTSVLRLKPPPGRNFSCVFWNTHVRELTLASIDLQSQMEPRTHPTGSGIWELKKDVYVVELDWYPDAPGEMVVLTCDTPEEDGITWTLDQSSEVLGSGKTLTIQVKAAGDAGQYTCHKGGEVLSHSLLLLHKKEDGIWSTDILKDQKEPKNKTFLRCEAKNYSGRFTCWWLTTISTDLTFSVKSSRGSSDPQGVTCGAATLSAERVRGDNKEYEYSVECQEDSACPAAEESLPIEVMVDAVHKLKYENYTSSFFIRDIIKPDPPKNLQLKPLKNSRQVEVSWEYPDTWSTPHSYFSLTFCVQVQGKSKREKKDRVFTDKTSATVICRKNASISVRAQDRYYSSSWSEWASVPCSGGGGSGGGGSGGGGSGGGGSGRNLPVATPDPGMFPCLHHSQNLLRAVSNMLQKARQTLEFYPCTSEEIDHEDITKDKTSTVEACLPLELTKNESCLNSRETSFITNGSCLASRKTSFMMALCLSSIYEDLKMYQVEFKTMNAKLLMDPKRQIFLDQNMLAVIDELMQALNFNSETVPQKSSLEEPDFYKTKIKLCILLHAFRIRAVTIDRVMSYLNASDKTHTCPPCPAPEDEGGPSVFLFPPKPKDTLMISRTPEVTCVVVDVSHEDPEVKFNWYVDGVEVHNAKTKPREEQYNSTYRVVSVLTVLHQDWLNGKEYKCKVSNKALPAPIEKTISKAKGQPREPQVYVYPPSREEMTKNQVSLTCLVKGFYPSDIAVEWESNGQPENNYKTTPPVLDEDGSFALVSKLTVDKSRWQQGNVFSCSVMHEALHNHYTQKSLSLSPGK
chain 2: LFTVTVPKELYIIEHGSNVTLECNFDTGSHVNLGAITASLQKVENDTSPHRERATLLEEQLPLGKASFHIPQVQVRDEGQYQCIIIYGVAWDYKYLTLKVKASYRKINTHILKVPETDEVELTCQATGYPLAEVSWPNVSVPANTSHSRTPEGLYQVTSVLRLKPPPGRNFSCVFWNTHVRELTLASIDLQSQMEPRTHPTGSGDKTHTCPPCPAPEKKGGPSVFLFPPKPKDTLMISRTPEVTCVVVDVSHEDPEVKFNWYVDGVEVHNAKTKPREEQYNSTYRVVSVLTVLHQDWLNGKEYKCKVSNKALPAPIEKTISKAKGQPREPQVYVLPPSREEMTKNQVSLLCLVKGFYPSDIAVEWESNGQPENRYMTWPPVLDSDGSFFLYSKLTVDKSRWQQGNVFSCSVMHEALHNHYTQKSLSLSPGK
notes: also called IL-12(E59A/F60A)/PD-L2-Fc immunocytokine; construct #29

Kd (human PD-1 [1]): ~100 nM | Kd (mouse PD-1 [2]): ~100 nM | Kd (mouse PD-1 [7]): 120 nM | IL-12 signal transduction, % of rIL-12, HEK-IL-12-PD-1 cells [8]: 24% | IL-12 signal transduction, % of rIL-12, HEK-IL-12 cells [9]: < 0.2%
B4: IL-12(E59A/F60A)/PD-L1(mut2)-Fc (Fc fusion)
chain 1: FTVTVPKDLYVVEYGSNMTIECKFPVEKQLDLAALQVYWMMEDKNIIQFVHGEEDLKVQHSSYRQRARLLKDQLSLGNAALQITDVKLQDAGVYTCLIAYKGADYKRITVKVNAPYNKINQRILVVDPVTSEHELTCQAEGYPKAEVIWTSSDHQVLSGKTTTTNSKREEKLFNVTSTLRINTTTNEIFYCTFRRLDPEENHTAELVIPELPLAHPPNERGGGGSGGGIWELKKDVYVVELDWYPDAPGEMVVLTCDTPEEDGITWTLDQSSEVLGSGKTLTIQVKAAGDAGQYTCHKGGEVLSHSLLLLHKKEDGIWSTDILKDQKEPKNKTFLRCEAKNYSGRFTCWWLTTISTDLTFSVKSSRGSSDPQGVTCGAATLSAERVRGDNKEYEYSVECQEDSACPAAEESLPIEVMVDAVHKLKYENYTSSFFIRDIIKPDPPKNLQLKPLKNSRQVEVSWEYPDTWSTPHSYFSLTFCVQVQGKSKREKKDRVFTDKTSATVICRKNASISVRAQDRYYSSSWSEWASVPCSGGGGSGGGSGGGGSRNLPVATPDPGMFPCLHHSQNLLRAVSNMLQKARQTLEFYPCTSEEIDHEDITKDKTSTVEACLPLELTKNESCLNSRETSFITNGSCLASRKTSFMMALCLSSIYEDLKMYQVEFKTMNAKLLMDPKRQIFLDQNMLAVIDELMQALNFNSETVPQKSSLEEPDFYKTKIKLCILLHAFRIRAVTIDRVMSYLNASGGGGSGGGDKTHTCPPCPAPEDEGGPSVFLFPPKPKDTLMISRTPEVTCVVVDVSHEDPEVKFNWYVDGVEVHNAKTKPREEQYNSTYRVVSVLTVLHQDWLNGKEYKCKVSNKALPAPIEKTISKAKGQPREPQVYVYPPSREEMTKNQVSLTCLVKGFYPSDIAVEWESNGQPENNYKTTPPVLDEDGSFALVSKLTVDKSRWQQGNVFSCSVMHEALHNHYTQKSLSLSPGK
chain 2: FTVTVPKDLYVVEYGSNMTIECKFPVEKQLDLAALQVYWMMEDKNIIQFVHGEEDLKVQHSSYRQRARLLKDQLSLGNAALQITDVKLQDAGVYTCLIAYKGADYKRITVKVNAPYNKINQRILVVDPVTSEHELTCQAEGYPKAEVIWTSSDHQVLSGKTTTTNSKREEKLFNVTSTLRINTTTNEIFYCTFRRLDPEENHTAELVIPELPLAHPPNERGGGGSGGGDKTHTCPPCPAPEKKGGPSVFLFPPKPKDTLMISRTPEVTCVVVDVSHEDPEVKFNWYVDGVEVHNAKTKPREEQYNSTYRVVSVLTVLHQDWLNGKEYKCKVSNKALPAPIEKTISKAKGQPREPQVYVLPPSREEMTKNQVSLLCLVKGFYPSDIAVEWESNGQPENRYMTWPPVLDSDGSFFLYSKLTVDKSRWQQGNVFSCSVMHEALHNHYTQKSLSLSPGK
notes: also called IL-12(E59A/F60A)/PD-L1(I54Q/E58M/R113T/M115L/S117A/G119K)-Fc
